Consider 5 molecules from patent US8846868B2, “Anti-AREG/HB-EGF antibodies and treatment” (Fusion Antibodies Limited, priority 2008, dated 2014).

Positions count from the first letter of the chain named.

One assay relates to cell growth. As to the kind of experiment: Comparison of cross-specific antibody to Cetuximab, MTT cell viability. The format is cell-based. The settings on record: cell growth assay.
The subject of assay [1] is colorectal cancer cell line LoVo. As to the kind of experiment: HBEGF ligand stimulated growth, MTT assay. The format is cell-based. As to the method: Different concentrations of cross-specific antibody was preincubated with ligand for an hour before addition to cells. Cell viability was assessed 48 hrs after treatment by MTT assay.
(§1) Cell viability was assessed by 3-(4,5-dimethylthiazol-2-yl)-2,5-diphenyltetrazolium bromide (MTT, Sigma) assay (Mosmann, 1983). To assess chemotherapy/siRNA interactions 5000 cells were seeded per well on 96 well plate. After 24 hours cells were transfected with siRNA and treated with various chemotherapeutic agents at different concentrations. After 48 hours MTT (1.0 mg/ml) was added to each well and cells were incubated at 37° C. for 2 hours. The culture media was removed and formazan crystals were reabsorbed in 200 μl DMSO. Cell viability was determined by reading the absorbance of each well at 570 nm using a microplate reader (Tecan Sunrise, Biorad, UK).
For orientation: Tetrazolium dyes change colour on reduction, which living cells bring about.

Assay [2] relates to pEGFR(Tyr1068) in MDA-MB231 cells. As to the kind of experiment: Ligand stimulated phosphorylation of EGFR, MDA-MB231. The settings on record: antibody pre-incubated with recombinant HBEGF 1 hour, 20 mins stimulation. In kind it is cell-based, human. As to the method: (§2) Cells were serum starved before addition of antibody and ligand. Cross-specific antibody (8d7 1f6 2f7, i.e. “2F7”) was pre-incubated with recombinant HBEGF for 1 hour before addition to cells. Cells were stimulated for 20 mins before preparation of cell lysates. 30 μg of protein was loaded on SDS-PAGE gel and transferred to nitrocellulose membrane. The membrane was probed with anti pEGFR(Tyr^1068)
(§3) 1.5×10^6 cells were seeded in […] in media containing 10% serum. 24 hrs after seeding cells were serum starved for 4 hrs. Antibodies were preincubated for 1 hour with 30 ng/ml of recombinant HBEGF before being added to cells for 20 mins in 2% serum. Cells were washed 3 times in PBS containing phosphatase inhibitors and scraped. Cells were pelleted and lysed. Protein concentration was determined and 30 ug of protein ran on SDS-PAGE for western blot analysis. Blots were probed with pEGFR(Tyr^1068) antibody.

Assay [3] relates to pEGFR(Tyr1068) in HCT116 cells. As to the kind of experiment: Ligand stimulated phosphorylation of EGFR, HCT116. In kind it is cell-based, human. The following applies: antibody pre-incubated with recombinant HBEGF 1 hour, 20 mins stimulation. As to the method:
as §2, §3

Assay [4] relates to pEGFR(Tyr 1068) in LoVo cells. As to the kind of experiment: Ligand stimulated phosphorylation of EGFR, LoVo. In kind it is cell-based. The following applies: antibody pre-incubated with recombinant HBEGF 1 hour, 20 mins stimulation. As to the method: Cells were serum starved before addition of antibody and ligand. Cross-specific antibody (8d7 1f6 2f7, i.e. “2F7”) was pre-incubated with recombinant HBEGF for 1 hour before addition to cells. Cells were stimulated for 20 mins before preparation of cell lysates. 30 μg of protein was loaded on SDS-PAGE gel and transferred to nitrocellulose membrane. The membrane was probed with anti pEGFR(Tyr 1068)
as §3

The test system of assay [5] is cancer cell proliferation. As to the kind of experiment: Cancer cell proliferation, cross-specific antibody alone or with cpt11, MTT assay. The format is cell-based. The following applies: 100 nM antibody in combination with 10 μM cpt11; MTT 72 hrs. As to the method: Cells were treated with 100 nM isotype control or 100 nM cross-specific antibody (8d7 1f6 2f7 i.e. “2F7” or 8d7 1f6 2b3 i.e. “2B3” alone or in combination with 10 μM cpt11. Cells were analysed by MTT assay after 72 hrs treatment. ** indicates statistically significant P<0.001. 2B3 RI value is 0.99 therefore an additive effect. 2F7 RI value is 1.1 therefore (slightly) synergistic.
as §1

What is called IC30 is the point of the concentration-response curve where the effect stands at 30%. A higher IC30 goes with a need for much substance.

Description for cell growth: Antibodies were added to cells at concentration of 20 ug/ml and 40 ug/ml alone and in combination with chemotherapy treatment. Cell viability was assessed 72 hrs after treatment by MTT assay. ** indicates nt P<0.001. * indicates p<0.05.

The molecule `CCc1c2c(nc3ccc(OC(=O)N4CCC(N5CCCCC5)CC4)cc13)-c1cc3c(c(=O)n1C2)COC(=O)[C@]3(O)CC` [cpt-11, irinotecan] gave an IC30 in the assay on cell growth of 5 µM.

B1: Recombinant HBEGF: recombinant HBEGF ligand used to stimulate cell growth and EGFR phosphorylation (protein)
chain: DLQEADLDLLRVTLSSKPQALATPNKEEHGKRKKKGKGLGKKRDPCLRKYKDFCIHGECKYVKELRAPSCICHPGYHGERCHGLSL
Take B1: the stimulation of growth result in assay [1] (recombinant HBEGF ligand, MTT 48 hrs) is listed as “approximately 60%”.

B2: 8d7 1f6 2f7: cross-specific AREG/HBEGF murine monoclonal antibody; VH Sequence ID No: 7, VL Sequence ID No: 8 (antibody, listed as Mus musculus)
VH: MKCSWIIFFLMAVVTGVNSEVQLQQSGAELVRPGALVKLSCKASGFNIKDSYIHWVNQRPEQGLEWIGWIDPENGNTIYDPKFQGKASITADTSSNTAYLQLSSLTSEDTAVYYCVSASYRYGFSYWGQGTLVTVSAAKTTPPPVYPLAPGSL
VL: MRAPAQFLGLLVLWIPGAIGDIVMTQAAPSVPVTPGESVSISCRSNKSLLHTNGNTYLYWFLQRPGQSPQLLIYRMSNLASGVPDRFSGSGSGTAFTLRISRVEAEDVGVYYCMQHLEYPYTFGGGTKLEIKRADAAPTVSIFPPSSKLG
In the case of B2, the “inhibition of HBEGF stimulated phosphorylation of EGFR” value in assay [2], in assay [3] and in assay [4] was “inhibition of ligand stimulation phosphorylation of EGFR” each time. The RI value in assay [5] is 1.1.

B3: 8d7 1f6 2b3: cross-specific AREG/HBEGF murine monoclonal antibody; VH Sequence ID No: 9, VL Sequence ID No: 10 (antibody, listed as Mus musculus)
VH: B2 VH with I6V, I7M
VL: B2 VL with A3P, A5L, Q6S
As to B3, in assay [5], the RI value worked out at 0.99.

B4: 8d7 1c8 1e9: cross-specific AREG/HBEGF murine monoclonal antibody; VH Sequence ID No: 5, VL Sequence ID No: 6 (antibody, listed as Mus musculus)
VH: MEWSWVILFLMAVVTGVNSEVQLQQSGAELVRPGALVKLSCKASGFNIKDSYIHWVNQRPEQGLEWIGWIDPENGNTIYDPKFQGKASITADTSSNTAYLQLSSLTSEDTAVYYCVSASYRYGFSYWGQGTLVTVSAAKTTPPSVYPWVPGSLX
VL: XADXISISCRSNKSLLHTNGNTYLYWFLQRPGQSPQLLIYRMSNLASGVPDRFSGSGSGTAFTLRISRVEAEDVGVYYCMQHLEYPYTFGGGTKLEIKRXX
modifications: not fully specified; (154)..(154) Xaa can be any naturally occurring amino acid; (1)..(1) Xaa can be any naturally occurring amino acid
Turning to B4, in assay [1] (300 nM antibody), the “effect on HBEGF stimulation of cell growth” value is given as “prevents any stimulation of cell growth by HBEGF”. In assay [1] (different antibody concentrations pre-incubated with HBEGF 1 hr, MTT 48 hrs), the “inhibition of ligand induced growth” value was “inhibit the ligand induced growth in a dose dependent manner”.
